Test system: ERK1/2
Assay: Phospho-ERK1/2 Western blot in cardiomyocytes
Format: cell-based, rat
Method: rPMT promotes the activation of ERK1/2, JNK and p38-MAPK cascades. Incubations were for 24 hr in the presence of the indicated concentrations of rPMT. PMA (100 nM, 5 min) and sorbitol ([…], 5 min) were included as positive controls. Cell lysates were subjected to SDS-PAGE followed by Western blotting as described in Methods below. Phosphorylated forms of ERK1/2 (A), p38 MAP kinase (B) or JNK (C) were detected by specific anti-phospho-ERK1/2, -p38 MAP kinase or -JNK antibodies, respectively. Blots were stripped and subjected to immunoblot analysis with total ERK1/2 or p38 MAP kinase to normalize for minor variations in protein loading (Panels A and B). Top: representative autoradiograms (with each lane from a single gel exposed for the same duration). Bottom: quantification of each series of experiments (n=3).
rPMT transactivation of the EGF receptor in cardiac fibroblasts, but not cardiomyocytes. Neonatal rat cardiomyocytes (Panel A) and cardiac fibroblasts (Panel B) were treated with rPMT (400 ng/ml) for 24 hr or EGF (50 ng/ml) for 5 min without or with AG1478 (2 μM, starting 30 min prior to stimulation). Cell lysates were subjected to SDS-PAGE followed by Western blotting with the anti-phospho-ERK1/2 antibody. Data are from a representative gel, with similar results obtained in 3 separate experiments.
Specific immunoreactivity for individual PKC isoforms was quantified according to methods described previously. For assays of MAPKs and AKT, cells were exposed to test agents as indicated in individual experimental protocols, washed three times with ice-cold calcium/magnesium-free Dulbecco's PBS (pH 7.1), scraped into ice-cold extraction buffer [20 mM β-glycerophosphate pH 7.5, 20 mM sodium fluoride, 2 mM EDTA, 0.2 mM sodium vanadate, 10 μg/ml aprotinin, 25 μg/ml leupeptin, 50 μg/ml PMSF, and 0.3% (v/v) β-mercaptoethanol], lysed by sonication, and centrifuged at 10,000 g for 10 min at 4° C. The supernatant was diluted in SDS-PAGE sample buffer, boiled for 5 min, and stored at −70° C. Western blot analysis was performed with antibodies that are selective for the phosphorylated (activated) forms of ERK1/2, p38-MAPK, JNK, AKT, and pan-PKC according to manufacturer's instructions. For each panel in each Figure, the results are from a single gel exposed for a uniform duration. Bands were detected by enhanced chemiluminescence and blots were quantified by laser scanning densitometry.

B1: rPMT: recombinant Pasteurella multocida toxin, a Gαq agonist used as pharmacological probe (protein, UniProt P17452 1-1285, looked up)
Dermonecrotic toxin: MKTKHFFNSDFTVKGKSADEIFRRLCTDHPDKQLNNVKWKEVFINRFGQMMLDTPNPRKIVEKIINEGLEKQGLKNIDPETTYFNIFSSSDSSDGNVFHYNSLSESYRVTDACLMNIFVERYFDDWDLLNSLASNGIYSVGKEGAYYPDHDYGPEYNPVWGPNEQIYHSRVIADILYARSVWDEFKKYFMEYWQKYAQLYTEMLSDTFLAMAIQQYTRQTLTDEGFLMVCNTYYGNKEEVQITLLDIYGYPSTDIICIEQKGLPTPKVILYIPGGTQPFVEFLNTDDLKQWIAWHLKDNKHMVAFRKHFSLKQRQEGETFTGIDKALQYIAEESPEWPANKYILYNPTHLETENLFNIMMKRTEQRMLEDSDVQIRSNSEATRDYALSLLETFISQLSAIDMLVPAVGIPINFALSATALGLSSDIVVNGDSYEKRKYGIGSLVQSALFTGINLIPVISETAEILSSFSRTEEDIPAFFTEEQALAQRFEIVEEELHSISPDDPPREITDENLHKIRLVRLNNENQPLVVLRRLGGNKFIRIEPITFQEIKGSLVSEVINPVTNKTYYVSNAKLLGGSPYSPFRIGLEGVWTPEVLKARASVIGKPIGESYKRILAKLQRIHNSNILDERQGLMHELMELIDLYEESQPSSERLNAFRELRTQLEKALYLPEMEALKKQILQIPNKGSGAARFLLRTAMNEMAGKTSESTADLIRFALQDTVISAPFRGYAGAIPEAIDFPVKYVIEDISVFDKIQTNYWELPAYESWNEGSNSALLPGLLRESQSKGMLSKCRIIENSLYIGHSYEEMFYSISPYSNQVGGPYELYPFTFFSMLQEVQGDLGFEQAFATRNFFNTLVSDRLSLMENTMLLTESFDYTPWDAIYGDINYDEQFAAMSINERIEKCMNTYRGVAFQNSSKSIDFFLNNLTTFIDNGLTEIAISDLPYDIVQQEISQFLQGSNEWKTLDAMLFNLDKGDINGAFRKLLQSAKDNNIKFRAIGHSDNSVPPFNNPYKSLYYKGNIIAEAIEKLDREGQKFVVFADSSLLNSTPGTGRPMPGLVQYLKIPATVVDSDGAWQFLPDVASSRVPIEVTELENWQVLTPPQGKILGLKQFKLTAGFPTEQSRLPLLENSVSEDLREELMQKIDAIKNDVKMNSLVCMEAGSCDSVSPKVAARLKDMGLEAGMGASITWWRREGGMEFSHQMHTTASFKFAGKEFAVDASHLQFVHDQLDTTILILPVDDWALEIAQRNRAINPFVEYVSKTGNMLALFMPPLFTKPRLTRAL
expression of total ERK1/2 protein: does not significantly alter | signaling through the ERK1/2 cascade (phosphorylation of terminal kinase) (24 hr, indicated concentrations): dose-dependent increases | magnitude of ERK1/2 activation (comparable to acute stimulation with PMA): quite robust | time at which ERK1/2 activation is detectable (increased progressively for 24 hr): 1 h
